# Source: patent publication US20050113303
# B1: recombinant human NEP (neprilysin, expressed from human NEP cDNA in COS-7 cells) (protein)
# chain: MESQMDITDINTPKPKKKQRWTPLEISLSVLVLLLTIIAVTMIALYATYDDGICKSSDCIKSAARLIQNMDATTEPCTDFFKYACGGWLKRNVIPETSSRYGNFDILRDELEVVLKDVLQEPKTEDIVAVQKAKALYRSCINESAIDSRGGEPLLKLLPDIYGWPVATENWEQKYGASWTAEKAIAQLNSKYGKKVLINLFVGTDDKNSVNHVIHIDQPRLGLPSRDYYECTGIYKEACTAYVDFMISVARLIRQEERLPIDENQLALEMNKVMELEKEIANATAKPEDRNDPMLLYNKMTLAQIQNNFSLEINGKPFSWLNFTNEIMSTVNISITNEEDVVVYAPEYLTKLKPILTKYSARDLQNLMSWRFIMDLVSSLSRTYKESRNAFRKALYGTTSETATWRRCANYVNGNMENAVGRLYVEAAFAGESKHVVEDLIAQIREVFIQTLDDLTWMDAETKKRAEEKALAIKERIGYPDDIVSNDNKLNNEYLELNYKEDEYFENIIQNLKFSQSKQLKKLREKVDKDEWISGAAVVNAFYSSGRNQIVFPAGILQPPFFSAQQSNSLNYGGIGMVIGHEITHGFDDNGRNFNKDGDLVDWWTQQSASNFKEQSQCMVYQYGNFSWDLAGGQHLNGINTLGENIADNGGLGQAYRAYQNYIKKNGEEKLLPGLDLNHKQLFFLNFAQVWCGTYRPEYAVNSIKTDVHSPGNFRIIGTLQNSAEFSEAFHCRKNSYMNPEKKCRVW
# B2: recombinant human PEX protein (full-length, expressed from plasmid pPEX in COS-7 cells) (protein)
# chain: MEAETGSSVETGKKANRGTRIALVVFVGGTLVLGTILFLVSQGLLSLQAKQEYCLKPECIEAAAAILSKVNLSVDPCDNFFRFACDGWISNNPIPEDMPSYGVYPWLRHNVDLKLKELLEKSISRRRDTEAIQKAKILYSSCMNEKAIEKADGKPLLHILRHSPFRWPVLESNIGPEGVWSERKFSLLQTLATFRGQYSNSVFIRLYVSPDDKASNEHILKLDQATLSLAVREDYLDNSTEAKSYRDALYKFMVDTAVLLGANSSRAEHDMKSVLRLEIKIAEIMIPHENRTSEAMYNKMNISELSAMIPQFDWLGYIKKVIDTRLYPHLKDISPSENVVVRVPQYFKDLFRILGSERKKTIDNYLVWRMVYSRIPNLSRRFQYRWLEFSRVIQGTTTLLPQRDKCVNFIESALPYVVGKMFVDVYFQEDKKEMMEELVEGVRWAFIDMLEKENEWMDAGTKRKAKEKARAVLAKVGYPEFIMNDTHVNEDLKAIKFSEADYFGNVLQTRKYLAQSDFFWLRKAVPKTEWFTNPTTVNAFYSASTNQIRFPAGELQKPFFWGTEYPRSLSYGAIGVIVGHEFTHGFDNNGRKYDKNGNLDPWWSTESEEKFKEKTKCMINQYSNYYWKKAGLNVKGKRTLGENIADNGGLREAFRAYRKWINDRRQGLEEPLLPGITFTNNQLFFLSYAHVRCNSYRPEAAREQVQIGAHSPPQFRVNGAISNFEEFQKAFNCPPNSTMNRGMDSCRLW
# Target: [D-Ala^2,Leu^5]enkephalin
row,Protein,"production of Tyr-D-Ala-Gly from the substrate, HPLC"
1,B1,production of Tyr-D-Ala-Gly from the substrate was evident only in NEP-expressing membrane preparations
2,B2,production of Tyr-D-Ala-Gly from the substrate was evident only in NEP-expressing membrane preparations
